Test results reported in article PMC3458741, “Studies on the substrate specificity of a GDP-mannose pyrophosphorylase from Salmonella enterica” (Beilstein Journal of Organic Chemistry, 2012).

Tests used:
Assay in all cases: purified protein
Details in all cases: co-substrate GTP
[1] = system: C[C@H]1O[C@H](OP(=O)(O)O)[C@@H](O)[C@@H](O)[C@@H]1O
From the text: (§1) colorimetric pyrophosphate detection assay on GDP-mannose pyrophosphorylase (GDP-ManPP)

[2] = system: CO[C@@H]1[C@@H](OP(=O)(O)O)O[C@H](CO)[C@@H](O)[C@@H]1O
From the text: as §1

[3] = system: CO[C@@H]1[C@H](O)[C@@H](OP(=O)(O)O)O[C@H](CO)[C@H]1O
From the text: as §1

[4] = system: O=P(O)(O)O[C@H]1O[C@H](CO)[C@@H](O)[C@H](O)[C@@H]1O
From the text: as §1

[5] = system: CO[C@H]1[C@H](O)[C@H](O)[C@@H](OP(=O)(O)O)O[C@@H]1CO
From the text: as §1

[6] = system: COC[C@H]1O[C@H](OP(=O)(O)O)[C@@H](O)[C@@H](O)[C@@H]1O
From the text: as §1

**Q.** What does the source list for “GDP-mannose pyrophosphorylase (GDP-ManPP) (Salmonella enterica subsp. enterica serovar Typhimurium str. LT2)”?
**A.** Km [1]: 70 ± 13 µM; kcat [1]: 5 ± 0.217 s⁻¹; kcat/Km [1]: 66700 ± 16700 M⁻¹ s⁻¹; Km [2]: 4000 ± 1100 µM; kcat [2]: 1.17 ± 0.183 s⁻¹; kcat/Km [2]: 333 ± 167 M⁻¹ s⁻¹; Km [3]: 200 ± 72 µM; kcat [3]: 0.0867 ± 0.0117 s⁻¹; kcat/Km [3]: 433 ± 16.7 M⁻¹ s⁻¹; Km [4]: 40 ± 6 µM; kcat [4]: 6 ± 0.267 s⁻¹; kcat/Km [4]: 150000 ± 50000 M⁻¹ s⁻¹; Km [5]: 3400 ± 870 µM; kcat [5]: 0.517 ± 0.0783 s⁻¹; kcat/Km [5]: 150 ± 83.3 M⁻¹ s⁻¹; Km [6]: 120 ± 18 µM; kcat [6]: 0.45 ± 0.0167 s⁻¹; kcat/Km [6]: 3830 ± 1000 M⁻¹ s⁻¹
